Measured values reported in patent US20200216534A1.
Read-outs that look alike come from different tables or passages of the source. Values belong to the molecule of their own block, whether it stands above or below them.

Columns and labels:
Assay in all cases: cell-based or functional assay
[1] = target: h19BBz CAR (human) (UniProt P01732)
[2] = target: m19-humBBz CAR (mouse; human) (UniProt P01731)
[3] = target: m19-humBBz CAR (mouse; human) (UniProt P01731); remark: listed apart in the source

Molecule: TRAF2 (over-expressed, cerulean-tagged)
NF-κB, fold against h19BBz alone [1]: 7.7 fold

Molecule: TRAF1 DN (184-417aa)
NF-κB signaling, GFP % in NF-κB/293/GFP-Luc reporter cells [2]: 13.4%
NF-κB signaling, GFP MFI in NF-κB/293/GFP-Luc reporter cells [2]: 1690 MFI

Other lines, results leading:

NF-κB signaling, GFP MFI in NF-κB/293/GFP-Luc reporter cells [3]: 14300 MFI
NF-κB signaling, GFP+% in NF-κB/293/GFP-Luc reporter cells [3]: 63.5%
B1: TRAF2 DN (87-501aa) (protein, UniProt Q12933 87-501, looked up, species assumed)
chain: SSSAFPDNAARREVESLPAVCPSDGCTWKGTLKEYESCHEGRCPLMLTECPACKGLVRLGEKERHLEHECPERSLSCRHCRAPCCGADVKAHHEVCPKFPLTCDGCGKKKIPREKFQDHVKTCGKCRVPCRFHAIGCLETVEGEKQQEHEVQWLREHLAMLLSSVLEAKPLLGDQSHAGSELLQRCESLEKKTATFENIVCVLNREVERVAMTAEACSRQHRLDQDKIEALSSKVQQLERSIGLKDLAMADLEQKVLEMEASTYDGVFIWKISDFARKRQEAVAGRIPAIFSPAFYTSRYGYKMCLRIYLNGDGTGRGTHLSLFFVVMKGPNDALLRWPFNQKVTLMLLDQNNREHVIDAFRPDVTSSSFQRPVNDMNIASGCPLFCPVSKMEAKNSYVRDDAIFIKAIVDLTGL
modifications: cerulean fluorescent protein tag

NF-κB signaling, GFP % in NF-κB/293/GFP-Luc reporter cells [3]: 30.8%
NF-κB signaling, GFP MFI in NF-κB/293/GFP-Luc reporter cells [3]: 6060 MFI
B2: TRAF3 DN (382-568aa) (protein, UniProt Q13114 382-568, looked up, species assumed)
chain: ESQLSRHDQMLSVHDIRLADMDLRFQVLETASYNGVLIWKIRDYKRRKQEAVMGKTLSLYSQPFYTGYFGYKMCARVYLNGDGMGKGTHLSLFFVIMRGEYDALLPWPFKQKVTLMLMDQGSSRRHLGDAFKPDPNSSSFKKPTGEMNIASGCPVFVAQTVLENGTYIKDDTIFIKVIVDTSDLPDP
modifications: cerulean fluorescent protein tag
